The values below come from US20240252589A1, “AGENT FOR ENHANCING PHAGOCYTOSIS ABILITY OF NEUTROPHILS” (priority 2018, published 2024).

Assay [1] relates to Human neutrophils. In words: Phagocytosis ability of neutrophils against Staphylococcus aureus (pHrodo indicator, InCell Analyzer). Type of assay: cell-based. On the procedure: (§1) Phagocytosis ability of neutrophils against Escherichia coli (a gram-negative bacterium) or Staphylococcus aureus (a gram-positive bacterium) was measured with a pHrodo™ indicator. Phagosomes within neutrophils can be fluorescence-stained with a pHrodo™ staining reagent to measure their phagocytosis ability. Human neutrophils were separated from the whole blood using a hemocyte separation solution Polymorphprep™, and the cell solution was washed with PBS to perform suspension. The numbers of cells were adjusted, and the cells were stained with Hoechst33342 (nucleus staining: blue) and calcein-AM (cytoplasm: green) by incubation under CO2 at 37° C. for 15 min. Neutrophil solutions were resuspended in HBSS, and the numbers of cells were adjusted (2×10^6 cells/mL).
(§2) To the neutrophil liquids at the cell concentration, hHRG solutions were added, and the mixtures were dispensed to a 96-well plate, allowing incubation under CO2 at 37° C. for 30 min. Then, Escherichia coli (pHrodo™ Escherichia coli) or Staphylococcus aureus (pHrodo™ Staphylococcus aureus) was added to the 96-well plate, and incubated under CO2 at 37° C. In this Example, the final concentration of the cell liquids was 2×10^4 cells/well (2×10^5 cells/mL), the final concentrations of HRG were from 0.01 μM to 3.0 μM, and the final concentration of pHrodo™ Escherichia coli or pHrodo™ Staphylococcus aureus was 25 μg/well (250 μg/mL). The incubation of Escherichia coli was for 60 min, and that of Staphylococcus aureus was for 120 min.
Through use of InCell Analyzer (GE Healthcare), the amounts of red-colored pHrodo by neutrophils' uptake were analyzed by image analysis and quantification to observe the phagocytosis ability of neutrophils. The analysis results of phagocytosis ability of neutrophils against Escherichia coli and Staphylococcus aureus are shown in FIG. 4A and FIG. 4B.
To the neutrophil liquids at the cell concentration (2×10^6 cells/mL), each solution of hHRG, rHRG, or HRG-Fc was added to observe the phagocytosis ability of neutrophils against Escherichia coli or Staphylococcus aureus by the same procedure as Experimental Example 1 (HRG final concentrations of from 0.1 μM to 3.0 μM). As an observation experiment, phagocytosis ability of neutrophils against Escherichia coli or Staphylococcus aureus was observed, when each of different anti-HRG antibodies or control antibodies was added. The amounts of red-colored pHrodo by neutrophils' uptake can be imaged and quantified to observe the phagocytosis ability of neutrophils. […]

The subject of assay [2] is Human neutrophils. Nature of the assay: Phagocytosis ability of neutrophils against Escherichia coli (pHrodo indicator, InCell Analyzer). Type of assay: cell-based. On the procedure: as §1, §2
Through use of InCell Analyzer (GE Healthcare), the amounts of red-colored pHrodo by neutrophils' uptake were analyzed by image analysis and quantification to observe the phagocytosis ability of neutrophils.
To the neutrophil liquids at the cell concentration (2×10^6 cells/mL), each solution of hHRG, rHRG, or HRG-Fc was added to observe the phagocytosis ability of neutrophils against Escherichia coli or Staphylococcus aureus by the same procedure as Experimental Example 1 (HRG final concentrations of from 0.1 μM to 3.0 μM). […] The amounts of red-colored pHrodo by neutrophils' uptake can be imaged and quantified to observe the phagocytosis ability of neutrophils.

Assay [3] relates to neutrophils. Nature of the assay: Opsonin effect 1: phagocytosis by neutrophils of pHrodo Red Zymosan treated with serum containing HRG or no HRG. Type of assay: cell-based, Human. Conditions: Zymosan 500 μg/mL; HRG 1.0 μM; 120 min; compared with serum containing no HRG. The method, then: In this Experimental Example, the effect of HRG on opsonization (Op) was observed using serum containing HRG or no HRG. Healthy human serum was used for opsonization (Op). In this Experimental Example, the “serum containing HRG” refers to untreated, healthy human serum. In this Experimental Example, the “serum containing no HRG” refers to human serum in which a Ni-NTA agarose gel is added to human serum to adsorb HRG in the serum, and then the Ni-NTA agarose gel is removed by centrifugation.
Zymosan (pHrodo™ Red Zymosan, manufactured by Thermo Fisher Scientific Inc.) was blended with serum containing HRG or no HRG at 4° C., and then the mixture was stirred well by ultrasonic homogenization. After the stirring, centrifugation was performed at 4° C. and 15,000 rpm for 15 min. The supernatant was discarded and the sediment was suspended in HBSS. This washing procedure was repeated twice, and then Zymosan was suspended in HBSS. The concentration of Zymosan at this time of point was 1.0 mg/mL.
To the neutrophil liquids, hHRG solutions were added, and the mixtures were dispensed to a 96-well plate, allowing incubation under CO2 at 37° C. for 30 min. […] Through use of InCell Analyzer (GE Healthcare), the amounts of red-colored pHrodo by neutrophils' uptake were analyzed by image analysis and quantification to observe the phagocytosis ability of neutrophils.

The test system of assay [4] is neutrophils. Nature of the assay: Opsonin effect 2: phagocytosis by neutrophils of pretreated Staphylococcus aureus. It counts as cell-based, Human. On the procedure: (§3) Escherichia coli (pHrodo™ Escherichia coli) or Staphylococcus aureus (pHrdo™ Staphylococcus aureus) was pre-incubated with human serum albumin (HSA, 1.0 μM), hHRG (1.0 μM), or 5-fold-diluted human serum (1/5 Serum) at 37° C. for 15 min, and then Escherichia coli or Staphylococcus aureus was washed twice with HBSS. […] A hHRG solution was added to a neutrophil solution. The mixture was dispensed to a 96-well plate and incubated under CO2 at 37° C. for 30 min. Then, the Escherichia coli or Staphylococcus aureus pretreated with the above-mentioned HSA or HRG solution, or 5-fold-diluted human serum was added, and the resulting mixture was dispensed to the 96-well plate and incubated under CO2 at 37° C. for 120 min. The final concentration of the cell liquid at this time was 2×10^4 cells/well (2×10^5 cells/mL), the final concentration of HSA or HRG was […], and the final concentration of […] was 25 μg/well (250 μg/mL). Through use of InCell Analyzer (GE Healthcare), the amounts of red-colored pHrodo by neutrophils' uptake were analyzed by image analysis and quantification to observe the phagocytosis ability of neutrophils.

The subject of assay [5] is neutrophils. In words: Opsonin effect 2: phagocytosis by neutrophils of pretreated Escherichia coli. It counts as cell-based, Human. The method, then: as §3
The mark [6] stands for this setting: Experimental Example 2, final concentrations 0.1 μM to 3.0 μM.
The mark [7] stands for this setting: Experimental Example 3, 1.0 μM hHRG, antibodies 10 μM.
Where [8] appears, read: bacteria pre-incubated 37° C. 15 min with hHRG 1.0 μM or 5-fold-diluted human serum.
The mark [9] stands for this setting: compared to un-opsonized (UnOp) bacterial cells, HRG added to neutrophils.

B1: rHRG: Recombinant human HRG expressed in CHO cells, purified on Ni-NTA agarose (protein)
chain: EFRMGKALIAALLLITLQYSCAVSPTDCSAVEPEAEKALDLINKRRRDGYLFQLLRIADAHLDRVENTTVYYLVLDVQESDCSVLSRKYWNDCEPPDSRRPSEIVIGQCKVIATRHSHESQDLRVIDFNCTTSSVSSALANTKDSPVLIDFFEDTERYRKQANKALEKYKEENDDFASFRVDRIERVARVRGGEGTGYFVDFSVRNCPRHHFPRHPNVFGFCRADLFYDVEALDLESPKNLVINCEVFDPQEHENINGVPPHLGHPFHWGGHERSSTTKPPFKPHGSRDHHHPHKPHEHGPPPPPDERDHSHGPPLPQGPPPLLPMSCSSCQHATFGTNGAQRHSHNNNSSDLHPHKHHSHEQHPHGHHPHAHHPHEHDTHRQHPHGHHPHGHHPHGHHPHGHHPHGHHPHCHDFQDYGPCDPPPHNQGHCCHGHGPPPGHLRRRGPGKGPRPFHCRQIGSVYRLPPLRKGEVLPLPEANFPSFPLPHHKHPLKPDNQPFPQSVSESCPGKFKSGFPQVSMFFTHTFPKPLE
modifications: misc_feature 1..1596 EcoR1-HRG-Xho1
notes: Recombinant human HRG expressed in CHO cells, purified on Ni-NTA agarose
For B1, in the assay on Human neutrophils [1] (setting [6]), the “enhancement of phagocytosis of neutrophils against Staphylococcus aureus” value is on record as “to the same extent as hHRG”. The “enhancement of phagocytosis of neutrophils against Escherichia coli” value in the assay with Human neutrophils [2] (setting [6]) is on record as “to the same extent as hHRG”.

B2: HRG: Human plasma-derived histidine-rich glycoprotein, about 80 kDa, purified by Ni-NTA affinity and Mono Q chromatography (protein)
chain: VSPTDCSAVEPEAEKALDLINKRRRDGYLFQLLRIADAHLDRVENTTVYYLVLDVQESDCSVLSRKYWNDCEPPDSRRPSEIVIGQCKVIATRHSHESQDLRVIDFNCTTSSVSSALANTKDSPVLIDFFEDTERYRKQANKALEKYKEENDDFASFRVDRIERVARVRGGEGTGYFVDFSVRNCPRHHFPRHPNVFGFCRADLFYDVEALDLESPKNLVINCEVFDPQEHENINGVPPHLGHPFHWGGHERSSTTKPPFKPHGSRDHHHPHKPHEHGPPPPPDERDHSHGPPLPQGPPPLLPMSCSSCQHATFGTNGAQRHSHNNNSSDLHPHKHHSHEQHPHGHHPHAHHPHEHDTHRQHPHGHHPHGHHPHGHHPHGHHPHGHHPHCHDFQDYGPCDPPPHNQGHCCHGHGPPPGHLRRRGPGKGPRPFHCRQIGSVYRLPPLRKGEVLPLPEANFPSFPLPHHKHPLKPDNQPFPQSVSESCPGKFKSGFPQVSMFFTHTFPK
B2: the “amount of phagocytosis by neutrophils of serum-treated Zymosan (opsonin effect)” value in the assay with neutrophils [3] was “opsonin (Op)-enhancing effect”. Besides, the “HRG concentration at which phagocytosis ability reached a plateau” value in the assay on Human neutrophils [1] (Experimental Example 1, Staphylococcus aureus) came out at 0.3 µM; with Human neutrophils [2] (Experimental Example 1, Escherichia coli) it was 0.3 M. Moreover, the “phagocytosis ability of neutrophils against Staphylococcus aureus” value was “enhanced” in the assay with Human neutrophils [1] (Experimental Example 1, hHRG 0.01 μM to 3.0 μM, 30 min preincubation, 120 min with pHrodo S. aureus) and “enhanced” in the assay with Human neutrophils [1] (setting [7]). For the same molecule, in the assay with neutrophils [4] (setting [8]), the “opsonin (Op)-enhancing effect of pretreatment of Staphylococcus aureus” value is “did not exhibit an opsonin (Op)-enhancing effect”. For the same molecule, the “phagocytosis ability of neutrophils of Staphylococcus aureus opsonized with human sera on addition of HRG” value with neutrophils [4] (setting [9]) was “highly enhanced”. Further, the “opsonin (Op)-enhancing effect of pretreatment of Escherichia coli” value with neutrophils [5] (setting [8]) is given as “did not exhibit an opsonin (Op)-enhancing effect”. Also, the “phagocytosis ability of neutrophils of Escherichia coli opsonized with human sera on addition of HRG” value in the assay with neutrophils [5] (setting [9]) is “highly enhanced”. The “phagocytosis ability of neutrophils against Escherichia coli” value with Human neutrophils [2] (Experimental Example 1, hHRG 0.01 μM to 3.0 μM, 30 min preincubation, 60 min with pHrodo E. coli) is “enhanced”; with Human neutrophils [2] (setting [7]) it was “enhanced”.
